This note sets out measurements from patent publication US20220153821A1.

First the molecules themselves.
B1: 7G6 (antibody, from another filing, V domains shown)
VH: QVQLLQPGAELVKPGASVIMSCKASGYTFTTYWITWVKQRPGQGLEWIGDIYPGSSICNYNEKFKSKATLTVDTSSSTAYMQLNSLTSEDSAVYYCAREDGYDAWFAYWGQGTLVTVSA
VL: DVLMTQTPLSLPVSLGDQASISCRSSQSILHSNGNTYLEWYLQKPGQSPKLLICKVSNRFSGVPDRFSGSGSGTDFTLKISRVEAEDLGVYYCFQGSHVPFTFGSGTKLEIK
B2: Hu3D6VHvb1 / Hu3D6VLvb1 (antibody, V domains shown)
VH: QVQLQQSGAELVKPGASVKLSCTASGFNIKDYYLHWVKQRPEQGLEWIGWIDPENGDTVYDPKFQGKATITADTSSNTAYLQLSSLTSEDTAVYFCSTLDFWGQGTTLTVSS
VL: not shown
modifications: here or on the partner: pHrodo-labeled
B3: Hu3D6VHvb6 / Hu3D6VLvb2 (antibody, V domains shown)
VH: EVQLVQSGAEVVKPGATVKISCKASGFTIKDYYLHWVRQRPGKGLEWIGWIDPEDGETVYDPKFQGRVTITADTSTDTAYMELSSLRSEDTAVYFCSTLDFWGQGTLVTVSS
VL: not shown
modifications: here or on the partner: pHrodo-labeled
B4: Hu3D6VHvb7 / Hu3D6VLvb2 (antibody, V domains shown)
VH: B3 VH with F95Y
VL: not shown
modifications: here or on the partner: pHrodo-labeled
B5: Hu3D6VHvb5 / Hu3D6VLvb3 (antibody, V domains shown)
VH: B3 VH with V59I, F95Y
VL: DVVMTQSPLSLSVTLGEPASISCRSSQSLLDSDGKTYLNWLQQRPGQSPRRLIYLVSKLDSGVPDRFSGSGSGTDFTLKISRVEAEDVGVYYCWQGTHFPYTFGQGTKLEIKR
modifications: here or on the partner: pHrodo-labeled
B6: Hu3D6VHvb4 / Hu3D6VLvb3 (antibody, V domains shown)
VH: B3 VH with D55N, E57D, V59I, F95Y
VL: B5 VL
modifications: here or on the partner: pHrodo-labeled
B7: Hu3D6VHvb2 / Hu3D6VLvb2 (antibody, V domains shown)
VH: B3 VH with T17S, T28N, D55N, E57D, V68A, M81L, R87T
VL: not shown
modifications: here or on the partner: pHrodo-labeled
B8: Hu3D6VHvb4 / Hu3D6VLvb2 (antibody, V domains shown)
VH: B3 VH with D55N, E57D, V59I, F95Y
VL: not shown
modifications: here or on the partner: pHrodo-labeled
B9: Hu3D6VHvb3 / Hu3D6VLvb3 (antibody, V domains shown)
VH: B3 VH with T28N, D55N, E57D, V59I, V68A, F95Y
VL: B5 VL
modifications: here or on the partner: pHrodo-labeled
B10: Hu3D6VHvb5 / Hu3D6VLvb2 (antibody, V domains shown)
VH: B3 VH with V59I, F95Y
VL: not shown
modifications: here or on the partner: pHrodo-labeled
B11: Hu3D6VHvb6 / Hu3D6VLvb3 (antibody, V domains shown)
VH: B3 VH
VL: B5 VL
modifications: here or on the partner: pHrodo-labeled
B12: Hu3D6VHvb3 / Hu3D6VLvb2 (antibody, V domains shown)
VH: B3 VH with T28N, D55N, E57D, V59I, V68A, F95Y
VL: not shown
modifications: here or on the partner: pHrodo-labeled
B13: Hu3D6VHvb2 / Hu3D6VLvb3 (antibody, V domains shown)
VH: B3 VH with T17S, T28N, D55N, E57D, V68A, M81L, R87T
VL: B5 VL
modifications: here or on the partner: pHrodo-labeled
B14: Hu3D6VHvb7 / Hu3D6VLvb3 (antibody, V domains shown)
VH: B3 VH with F95Y
VL: B5 VL
modifications: here or on the partner: pHrodo-labeled

Where a chain is given by its changes, count along the chain named.

For the first test, the target named is recombinant human tau (human) (UniProt P10636). The experiment in a line: SPR, Biacore T200: antibody captured on anti-mouse CM5 chip, recombinant human tau 10-0.14 nM as analyte, global 1:1 fit. On the technique in general: Surface plasmon resonance follows binding to a sensor surface in real time, without labels.
Sequence of recombinant human tau (human) (P10636 other isoform, or with tags, fused parts or gaps limits assumed): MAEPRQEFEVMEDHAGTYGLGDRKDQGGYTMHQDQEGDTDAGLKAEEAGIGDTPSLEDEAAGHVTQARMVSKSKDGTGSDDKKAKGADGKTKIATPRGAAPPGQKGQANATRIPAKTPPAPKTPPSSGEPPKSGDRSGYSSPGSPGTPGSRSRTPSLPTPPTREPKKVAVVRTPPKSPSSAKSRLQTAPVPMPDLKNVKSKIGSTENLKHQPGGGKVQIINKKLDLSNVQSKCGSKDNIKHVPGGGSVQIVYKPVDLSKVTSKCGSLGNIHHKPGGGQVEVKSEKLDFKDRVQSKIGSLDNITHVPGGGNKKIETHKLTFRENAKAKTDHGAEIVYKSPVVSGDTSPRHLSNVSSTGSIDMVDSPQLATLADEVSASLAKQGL
What is called Kd is the constant that tells how readily two partners part at equilibrium. By koff is commonly meant the first-order rate constant of dissociation. Broadly, the kon is the second-order rate constant of association. As for B1, the Kd stood at 5.77 nM, the koff came to 0.00332 s⁻¹ and the kon was determined as 576000 M⁻¹ s⁻¹.

For a further test, the target named is pHrodo-labeled 4R0N human tau P301L soluble oligomer (human), P10636. The experiment in a line: cell-based or functional assay.
Sequence of pHrodo-labeled 4R0N human tau P301L soluble oligomer (human), P10636 (P10636 other isoform, or with tags, fused parts or gaps P301L P301L): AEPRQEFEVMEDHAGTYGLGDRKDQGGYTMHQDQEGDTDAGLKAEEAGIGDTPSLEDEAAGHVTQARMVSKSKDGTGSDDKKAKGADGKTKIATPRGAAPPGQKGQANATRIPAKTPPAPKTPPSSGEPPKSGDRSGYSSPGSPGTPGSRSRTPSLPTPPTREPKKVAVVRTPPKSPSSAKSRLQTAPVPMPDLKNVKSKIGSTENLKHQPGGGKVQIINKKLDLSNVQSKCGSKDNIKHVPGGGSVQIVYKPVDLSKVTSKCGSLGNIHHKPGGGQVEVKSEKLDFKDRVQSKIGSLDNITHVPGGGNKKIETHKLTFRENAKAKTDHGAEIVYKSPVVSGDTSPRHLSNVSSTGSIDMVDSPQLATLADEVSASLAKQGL
The molecule B2 showed an Inhibition of cell based internalization (at 133 nM antibody concentration, % of inhibition of maximal fluorescent signal) of 80%.

Regarding B3, the Inhibition of cell based internalization (at 133 nM antibody concentration, % of inhibition of maximal fluorescent signal) stood at 76.3%.

With B4, the Inhibition of cell based internalization (at 133 nM antibody concentration, % of inhibition of maximal fluorescent signal) was found to be 74.5%.

The molecule B5 displayed an Inhibition of cell based internalization (at 133 nM antibody concentration, % of inhibition of maximal fluorescent signal) of 67.7%.

B6 came in with an Inhibition of cell based internalization (at 133 nM antibody concentration, % of inhibition of maximal fluorescent signal) of 49%.

In turn, B7 yielded an Inhibition of cell based internalization (at 133 nM antibody concentration, % of inhibition of maximal fluorescent signal) of 84.9%.

In the case of B8, the Inhibition of cell based internalization (at 133 nM antibody concentration, % of inhibition of maximal fluorescent signal) came to 61%.

B9 yielded an Inhibition of cell based internalization (at 133 nM antibody concentration, % of inhibition of maximal fluorescent signal) of 72.1%.

Molecule B10 gave an Inhibition of cell based internalization (at 133 nM antibody concentration, % of inhibition of maximal fluorescent signal) of 67.2%.

For B11, the Inhibition of cell based internalization (at 133 nM antibody concentration, % of inhibition of maximal fluorescent signal) was determined as 70%.

With B12, the Inhibition of cell based internalization (at 133 nM antibody concentration, % of inhibition of maximal fluorescent signal) stood at 71.2%.

B13 gave an Inhibition of cell based internalization (at 133 nM antibody concentration, % of inhibition of maximal fluorescent signal) of 85%.

On to B14, for which the Inhibition of cell based internalization (at 133 nM antibody concentration, % of inhibition of maximal fluorescent signal) worked out at 66%.
